The target in assay [1] is Full-length Cyno OX40 (cynomolgus monkey). The experiment in a line: flow cytometry (GUAVA Easycyte), antibody at 1:30 dilution, CHO clone OXF004a_11H7 expressing cynomolgus OX40.
Assay [2] concerns the target Full-length Human OX40 (human) (UniProt P43489). Nature of the assay: flow cytometry (GUAVA Easycyte), antibody at 1:30 dilution, CHO clone OXF001a_6B1 expressing human OX40.
Assay [3] shares this target. Nature of the assay: flow cytometry (GUAVA Easycyte), antibody at 1:30 dilution, CHO clone OXF001a_9G10 expressing human OX40.

Sequence of Full-length Human OX40 (human) (P43489 29-277): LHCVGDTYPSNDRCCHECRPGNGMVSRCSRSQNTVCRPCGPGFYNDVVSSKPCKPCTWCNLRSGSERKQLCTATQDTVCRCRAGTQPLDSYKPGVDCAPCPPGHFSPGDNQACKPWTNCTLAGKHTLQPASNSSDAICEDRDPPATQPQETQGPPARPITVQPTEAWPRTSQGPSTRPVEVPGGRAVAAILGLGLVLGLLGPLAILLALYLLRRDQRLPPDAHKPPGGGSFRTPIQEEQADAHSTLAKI
Sequence of Full-length Cyno OX40 (cynomolgus monkey) (P43489 other isoform, or with tags, fused parts or gaps): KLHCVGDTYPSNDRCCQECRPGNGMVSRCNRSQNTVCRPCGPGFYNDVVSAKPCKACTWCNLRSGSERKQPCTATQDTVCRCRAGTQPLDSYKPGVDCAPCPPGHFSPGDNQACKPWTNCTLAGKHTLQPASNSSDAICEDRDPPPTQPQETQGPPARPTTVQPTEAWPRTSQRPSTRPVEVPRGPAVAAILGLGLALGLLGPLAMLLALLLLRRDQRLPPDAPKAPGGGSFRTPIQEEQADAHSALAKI

Take “antibody to human OX40 (clone L106, BD Biosciences)”: the values for the MFI in assay [1], in assay [2] and in assay [3] were 456, 211 and 230, respectively.

The values above are taken from patent publication US20220242962A1.
